# Tested on: MBP-His8-MilO (Streptoverticillium rimofaciens (Streptomyces rimofaciens))
# Assay: fluorescence polarization
# Conditions: EMSA: 20 mM Tris-HCl pH 8.0, 100 mM KCl, 2.5 mM MgCl2, 0.2 mM DTT, 10% glycerol, salmon sperm DNA, 30 C 10 min (Fig 5 legend: room temperature); FP: 20 mM Tris …
row,Sequence,binding signal (fold decrease in affinity vs OBSWT)
1,TGTCGCCCGGTCGTATTATCTAACGGTGTCCGCCGGTGCCCCGG (double strand) [OBSM2],3
2,CACTATTTAATCGTGTCGCTCGGTGGTGTCCGCCGGTGCCCCGG (double strand) [OBSM1],3
3,TGTCGCCCGGTCGTGTCGCTCGGTGGCGCCTATCAACGCCCCGG (double strand) [OBSM3],3

# Reference: paper PMC11784345
